The results in this text go back to patent US20220175942A1 (published 2022).

B1: CCL1_HUMAN (ligand)
chain: KSMQVPFSRCCFSFAEQEIPLRAILCYRNTSSICSNEGLIFKLKRGKEACALDTVGWVQRHRKMLRHCPSKRK
B3: CCL8_HUMAN (ligand)
chain: QPDSVSIPITCCFNVINRKIPIQRLESYTRITNIQCPKEAVIFKTKRGKEVCADPKERWVRDSMKHLDQIFQNLKP
B8: CCL17_HUMAN (ligand)
chain: ARGTNVGRECCLEYFKGAIPLRKLKTWYQTSEDCSRDAIVFVTVQGRAICSDPNNKRVKNAVKYLQSLERS
B11: CCL5_HUMAN (ligand)
chain: SPYSSDTTPCCFAYIARPLPRAHIKEYFYTSGKCSNPAVVFVTRKNRQVCANPEKKWVREYINSLEMS
B16: CCL11_HUMAN (ligand)
chain: not shown

For assay [1], the target named is EVASIN4. In words: -; previously described evasin.
Assay [2] has as its target CCL14_HUMAN. In words: BLI.
The target in assay [3] is CCL16_HUMAN. In words: BLI. Background: Biolayer interferometry detects binding as a change in optical thickness at a sensor tip.
Assay [4] addresses CCL7_HUMAN. Put plainly: BLI.
For assay [5], the target named is CCL4L1_HUMAN. Put plainly: BLI.
The target in assay [6] is CCL3L1_HUMAN. In words: BLI.
Assay [7] addresses CCL13_HUMAN. In words: BLI.
Assay [8] concerns the target T1, CCL3_HUMAN (human, UniProt P10147 24-92).
T1 chain: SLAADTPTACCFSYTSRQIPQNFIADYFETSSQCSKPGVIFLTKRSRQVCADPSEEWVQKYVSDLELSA
Put plainly: BLI.

The target in assay [9] is T2, CCL4 (human, UniProt P13236 24-92).
T2 chain: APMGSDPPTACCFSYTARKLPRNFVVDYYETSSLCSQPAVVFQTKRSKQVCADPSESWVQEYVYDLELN
In words: BLI.

For assay [10], the target named is B16. Put plainly: BLI.
Assay [11] deals with CCL2_HUMAN (human, UniProt P13500 24-99). Put plainly: BLI.
The target of assay [12] is B8. In words: BLI.
Assay [13] concerns the target T3, CCL18_HUMAN (human, UniProt P55774 21-89).
T3 chain: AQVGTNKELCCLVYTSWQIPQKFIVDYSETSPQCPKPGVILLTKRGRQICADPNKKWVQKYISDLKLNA
In words: BLI.

Assay [14] concerns the target B1. In words: BLI.
Assay [15] addresses B3. Put plainly: BLI.
Assay [16] has as its target T4, CCL22_HUMAN (human, UniProt O00626 25-93).
T4 chain: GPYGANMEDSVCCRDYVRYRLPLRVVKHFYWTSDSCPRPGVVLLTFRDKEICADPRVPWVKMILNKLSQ
Put plainly: BLI.

The target in assay [17] is B11. In words: BLI.

CCL2_HUMAN, sequence (P13500 24-99): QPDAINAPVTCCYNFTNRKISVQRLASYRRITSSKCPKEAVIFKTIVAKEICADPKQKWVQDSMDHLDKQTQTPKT

For orientation: Kd means the constant that tells how readily two partners part at equilibrium. Higher therefore signals a looser complex. The molecule B1 came in with a dissociation constant (Kd) in [1] of 0.2 nM.

B2: CCL19_HUMAN (ligand)
chain: GTNDAEDCCLSVTQKPIPGYIVRNFHYLLIKDGCRVPAVVFTTLRGRQLCAPPDQPWVERIIQRLQRTSAKMKRRSS
Take B2: the Kd in [1] was determined as 0.14 nM. This Kd and that of the molecule before are within 1.5-fold of each other.
The same measure, in the same setting: next, B3: 0.25 nM.

B4: P546_AMBCA (other)
chain: ENTQQEEEDYDYGTDTCPFPVLANKTNKAKFVGCHQKCNGGDQKLTDGTACYVVERKVWDRMTPMLWYSCPLGECKNGVCEDLRKKEECRKGNGEEK
On to B4, for which the Kd turned out to be 28.2 nM in assay [2]; 6.67 nM in assay [3]; 90 nM in assay [4]; 8.87 nM in assay [5]; 14.7 nM in assay [6]; 13.1 nM in assay [7]. Besides, the Kd in [8] worked out at 14.5 nM; in assay [9], 26.6 nM; in [10], 8.7 nM; in [11], 83 nM; in [12] it was 70 nM; in [13], 16 nM. Further, the Kd is 160 nM in [14], 1.29 nM in [15] and 27 nM in [16].

B5: P974_AMBCA (other)
chain: ENTQQEEQDYDYGTDTCPFPVLANKTNKAKFVGCHQKCNGGDQKLTDGTACYVVERKVWDRMTPMLWYECPLGECKNGVCEDLRKKEDCRKGNGEEK
Consider B5, for which the Kd in [2] turned out to be 49.1 nM; in assay [3], 11 nM; in assay [4] it was 41.2 nM; in assay [5], 23.2 nM; in assay [6] it was 13.1 nM; in assay [7], 22.9 nM. Besides, the Kd turned out to be 7.97 nM in assay [8]; 30.2 nM in [9]; 17 nM in assay [10]; 93 nM in assay [11]; 70.6 nM in [12]; 0.683 nM in assay [13]. For the same molecule, the results for the equilibrium dissociation constant (Kd) in [14], in assay [15] and in [16] were 70.5 nM, 2.58 nM and 16.8 nM, respectively.

B6: P983_AMBCA (other)
chain: EDTGTEDDFDYGNTGCPFPVLGNYKSNMTKPVGCKNKCGSGYEVLNDTTPCYVIDQKVFNNMVPLRQYSKCPLGFCENGECKPNDQAEDCYKGREEQK
Consider B6, for which the Kd in assay [8] worked out at 3.51 nM; in assay [9] it was 8.03 nM; in assay [10], 18 nM; in [11] it was 13.9 nM; in assay [15], 6.99 nM.

B7: P983_AMBPA (other)
chain: EDTGTEDDFDYGNTGCPFPVLGNYKSNMTKPVGCKNKCGSGYEVLNDTTPCYVIDQKVFNNMVPLRQYSKCPLGFCENGECKPNDQAEDCYKGREEQK
Turning to B7, the Kd turned out to be 81 nM in [2]; 32.1 nM in [4]; 2.86 nM in assay [5]; 2.08 nM in assay [6]; 17.3 nM in assay [7].
Take B8: the Kd in assay [1] was found to be 0.61 nM.

B9: P1182_AMBMA (other)
chain: EPKDDNDYGGGCPFVVLGNGTHAKPAGCSHLCNGAPETLDNIECYNVTEEVAKRMTPGIPYACWLGWCNKGECKRGNRTEVCYRGSEEE
Take B9: the Kd in [4] was determined as 29.2 nM; in assay [6] it was 63.4 nM; in [7] it was 50 nM; in assay [8], 9.46 nM; in [9], 92.4 nM; in assay [10], 56 nM. Also, the Kd was found to be 5.39 nM in assay [11], 33.4 nM in [12], 74 nM in [14] and 28.2 nM in assay [15].

B10: P1181_AMBMA (other)
chain: EEREDDNDYGGGCPFVVLGNGTHAKPAGCSHLCNGAPETLDNIECYNVTEEVAKRMTPDIPYTCWLGWCSKGECKRDNRTEVCYRGSERE
As to B10, the Kd is 47 nM in [2]; 35 nM in assay [4]; 13.5 nM in [5]; 100 nM in assay [6]; 19 nM in [7]; 3.29 nM in [8]. For the same molecule, the Kd stood at 53 nM in assay [9]; 19.5 nM in [10]; 2.21 nM in assay [11]; 10 nM in assay [13]; 119 nM in assay [15].
In assay [1], B11 displayed a Kd of 0.09 nM.

B12: CCL15_HUMAN (ligand)
chain: QFTNDAETELMMSKLPLENPVVLNSFHFAADCCTSYISQSIPCSLMKSYFETSSECSKPGVIFLTKKGRQVCAKPSGPGVQDCMKKLKPYSI
Turning to B12, binding in assay [1] was characterised by a dissociation constant (Kd) of 2.31 nM.

B13: P1183_AMBTR (other)
chain: EAPKDDFEYDGGCPFVVLDNGTHVKPAGCSHLCNGAPETLDNIECYNVTEEVAKRMTPGIPYACWLGWCSKGECKRDNRTEVCYRGSEEE
Consider B13, for which the Kd turned out to be 5.38 nM in assay [4]; 48.4 nM in [5]; 110 nM in assay [6]; 5.67 nM in [7]; 78.3 nM in assay [9]; 8.47 nM in assay [10]. The dissociation constant Kd was determined as 11.9 nM in assay [11] and 1130 nM in assay [15].

B14: P467_RHIPU (other)
chain: AEKSLDSDSSGEDYELWTQGCPFLVAENRTGFGTTVSCQHNCNGAIEKVPEGEPCYTIGEDGLGRMKLNLPYNCSLGECSGGVCVPNGRSDVCFKRTWEENNKAMA
Take B14: the Kd was found to be 4.13 nM in assay [2]; 14.1 nM in assay [3]; 2.15 nM in [4]; 4.72 nM in [5]; 0.524 nM in assay [6]; 2.56 nM in [7]. Besides, the Kd in assay [8] worked out at 0.363 nM; in assay [9] it was 13.6 nM; in assay [10] it was 1.4 nM; in assay [11], 0.001 nM; in assay [17] it was 7.67 nM; in [13], 16.6 nM. In addition, the dissociation constant (Kd) amounted to 53.4 nM in assay [14] and 2.85 nM in [15].

B15: P1180_AMBTR (other)
chain: EEPKDGYDYTEGCPFVVLGNGTHAKPAGCSHLCNGAPETLDDNMECYNVTEEVAKRMTPDIPYTCWLGWCSKGECKRDNRTEVCYRGSERE
As to B15, the Kd turned out to be 4.4 nM in [2]; 98 nM in assay [4]; 19.5 nM in [5]; 2.19 nM in assay [6]; 8.96 nM in [7]; 1.07 nM in assay [8]. For the same molecule, the Kd in assay [9] came to 66 nM; in [10], 32.5 nM; in assay [11], 53 nM; in [13], 5.78 nM; in [15] it was 3.63 nM.
In assay [1], B16 came in with a Kd of 0.34 nM.
